Assay results taken from patent US20100092522A1 (published 2010).

Tests used:
[1] = target: T1, HLA-A0201 molecule on T2 cells (TAP-, HLA-A0201+) (human); assay: T2 thermostabilization assay, flow cytometry of surface HLA-A2 (BB7.2), fluorescence index; native peptide as reference
T1 construct: MHC class I molecule without a defined peptide; also called HLA-A2.1
Procedure: (§1) T2 cells (TAP⁻, HLA-A0201⁺) were incubated overnight at 27° C. at a concentration of 1×10⁶ cells/ml in FCS-free RPMI medium supplemented with 5 μg/ml human β₂m (Sigma, St Louis, Mo.) in the absence (negative control) or presence of either a positive reference tyrosinase peptide or test peptides at various final concentrations (50, 10, 1, and 0.1 micrograms (μg)/ml). Following a 4-hour incubation with 5 μg/ml brefeldin A (Sigma), T2 cells were labeled for 30 minutes at 4° C. with a saturating concentration of anti-HLA-A2.1 (BB7.2) mAb, then washed twice. Cells were then incubated for 30 minutes, 4° C. with a saturating concentration of FITC-conjugated goat IgG F(ab′)2 anti-mouse Ig (Caltag, San Francisco, Calif.), washed twice, fixed in PBS/1% paraformaldehyde and analyzed using a FACS Calibur® cytofluorometer (Becton Dickinson, Immunocytometry Systems, San Jose, Calif.).
(§2) Following initial evaluation of peptide binding at time 0, cells were washed in RPMI complete medium to remove free peptides and incubated in the continuous presence of 0.5 μg/ml brefeldin-A for 2, 4, 6 or 8 hours.

[2] = target: T1, HLA-A0201 molecule on T2 cells (TAP-, …); assay: T2 thermostabilization assay, flow cytometry of surface HLA-A2 (BB7.2), fluorescence index
Procedure: as §1, §2

[3] = target: T2, HLA-A0301 molecule on Raji HLA-A0301 cells (human); assay: thermostabilization assay on Raji HLA-A0301 cells, fluorescence index
T2 construct: It says only 'thermostabilization assays using; Raji HLA-A0301 cells'

[4] = target: T1, HLA-A0201 molecule on T2 cells (TAP-, …); assay: T2 stabilization assay of Example 1, as told in the description
Procedure: as §1, §2

Binder	binding result [3]	further results
RMFPNAPYL (also called WT1A (126-134)) [WT1 A (native)]	–	binding result [1]: binds
YMFPNAPYL [WT1 A1 (analogue)]	–	binding result [2]: binds
NMHQRNMTK [A3 WT1 A (native)]	binds	–
NMYQRNMTK [A3 WT1 A1 (analogue)]	binds	–
NMHQRVMTK [A3 WT1 A2 (analogue)]	binds	–
NMYQRVMTK [A3 WT1 A3 (analogue)]	binds	–
QMNLGATLK [A3 WT1 B (native)]	binds	–
QMYLGATLK [A3 WT1 B1 (analogue)]	binds	–
QMNLGVTLK [A3 WT1 B2 (analogue)]	binds	–
QMYLGVTLK [A3 WT1 B3 (analogue)]	binds	–
FMCAYPGCNK [A3 WT1 C (native)]	binds	–
FMYAYPGCNK [A3 WT1 C1 (analogue)]	binds	–
FMCAYPFCNK [A3 WT1 C2 (analogue)]	binds	–
FMYAYPFCNK [A3 WT1 C3 (analogue)]	binds	–
SLGEQQYSV [WT1 B (native)]	–	binding result [1]: binds
YLGEQQYSV [WT1 B1 (analogue)]	–	binding result [2]: binds
KLSHLQMHSR [A3 WT1 D (native)]	binds	–
KLYHLQMHSR [A3 WT1 D1 (analogue)]	binds	–
KLSHLQMHSK [A3 WT1 D2 (analogue)]	binds	–
KLYHLQMHSK [A3 WT1 D3 (analogue)]	binds	–
ALLPAVPSL [WT1 C (native)]	–	binding result [1]: binds
YLLPAVPSL [WT1 C1 (analogue)]	–	binding result [4]: binds
NLGATLKGV [WT1 D (native)]	–	binding result [1]: binds
YLGATLKGV [WT1 D1 (analogue)]	–	binding result [2]: binds
